The target of this assay is envelope of the SF162 strain of pseudovirus (HIV, SF162) (UniProt P19550). As to the kind of experiment: cell-based or functional assay.

Regarding purified b12-IgG1 (antibody), the neutralizing 50% inhibitory concentration (IC50), pseudovirus neutralization assay worked out at 0.026 µg/mL.

For the origin of these results see patent US20100203630A1.
